Experimental data: the supplement of paper PMC9112550, “Optimization of the antimicrobial peptide Bac7 by deep mutational scanning” (BMC Biology, 2022)

System: Escherichia coli TOP10
Assay: shrunken log2 fold change of peptide-encoding DNA abundance (4.5 h post-induction vs induction); higher = less antimicrobial activity (less host growth inhibition)
Settings: time post-induction: 4.5 h; library: site-saturation at positions 5, 18, 19, 20
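Further: peptides expressed intracellularly from a pBAD plasmid library in pooled LB shake-flask culture, induced with 0.3% L-arabinose, DNA abundance read by NGS, three biological replicates, DESeq2 with apeglm shrinkage.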

| Sequence | shrunken log2 fold change |
| --- | --- |
| RRIRLRPPRLPRPRPRPRFHPRP | -0.208 |
| RRIRLRPPRLPRPRPRPRCTPRP | 0.0989 |
| RRIRYRPPRLPRPRPRPQSWPRP | 0.0202 |
| RRIRERPPRLPRPRPRPYGHPRP | -0.136 |
| RRIRMRPPRLPRPRPRPMKDPRP | 0.251 |
| RRIRERPPRLPRPRPRPNVFPRP | -0.189 |
| RRIRGRPPRLPRPRPRPAHEPRP | 0.0535 |
| RRIRNRPPRLPRPRPRPGPHPRP | 0.0143 |
| RRIRDRPPRLPRPRPRPQVAPRP | 0.166 |
| RRIRPRPPRLPRPRPRPGWPPRP | 0.667 |
| RRIRDRPPRLPRPRPRPPLTPRP | 0.307 |
| RRIRRRPPRLPRPRPRPQEKPRP | 0.0332 |
| RRIRQRPPRLPRPRPRPKPHPRP | 0.167 |
| RRIRHRPPRLPRPRPRPEKHPRP | 0.0511 |
| RRIRDRPPRLPRPRPRPWPAPRP | 0.308 |
| RRIRERPPRLPRPRPRPFADPRP | -0.192 |
| RRIRRRPPRLPRPRPRPEPSPRP | 0.228 |
| RRIRRRPPRLPRPRPRPHVGPRP | 0.0734 |
| RRIRWRPPRLPRPRPRPRPHPRP | 0.408 |
| RRIRMRPPRLPRPRPRPNQEPRP | -0.0314 |
| RRIRERPPRLPRPRPRPNAHPRP | 0.0249 |
| RRIRYRPPRLPRPRPRPVVFPRP | -0.747 |
| RRIRKRPPRLPRPRPRPFPNPRP | 0.0546 |

| Sequence | shrunken log2 fold change |
| --- | --- |
| RRIRTRPPRLPRPRPRPPLPPRP | 0.33 |
| RRIRNRPPRLPRPRPRPPAFPRP | 0.0832 |
| RRIRNRPPRLPRPRPRPLNIPRP | -0.389 |
| RRIRMRPPRLPRPRPRPAPTPRP | 1.13 |
| RRIRIRPPRLPRPRPRPHWRPRP | -0.101 |
| RRIRTRPPRLPRPRPRPEAFPRP | 0.0195 |
| RRIRRRPPRLPRPRPRPHVIPRP | -0.0937 |
| RRIRYRPPRLPRPRPRPVAGPRP | -0.0147 |
| RRIRMRPPRLPRPRPRPIYWPRP | -0.0918 |
| RRIRTRPPRLPRPRPRPYWSPRP | 0.00748 |
| RRIRSRPPRLPRPRPRPEVPPRP | 0.0326 |
| RRIRARPPRLPRPRPRPYSWPRP | -0.0849 |
| RRIRSRPPRLPRPRPRPHIRPRP | -0.632 |
| RRIRVRPPRLPRPRPRPNHEPRP | -0.547 |
| RRIRNRPPRLPRPRPRPGKGPRP | 0.101 |
| RRIRGRPPRLPRPRPRPFFFPRP | 0.696 |
| RRIRNRPPRLPRPRPRPSNSPRP | -0.235 |
| RRIRYRPPRLPRPRPRPARCPRP | 0.0957 |
| RRIRFRPPRLPRPRPRPVCHPRP | -0.705 |
| RRIRERPPRLPRPRPRPAFQPRP | 0.0677 |
| RRIRMRPPRLPRPRPRPNDNPRP | 0.504 |
| RRIRKRPPRLPRPRPRPPFHPRP | 0.307 |
| RRIRQRPPRLPRPRPRPSWMPRP | -0.0569 |

| Sequence | shrunken log2 fold change |
| --- | --- |
| RRIRMRPPRLPRPRPRPFMFPRP | 0.0892 |
| RRIRKRPPRLPRPRPRPLCWPRP | 0.52 |
| RRIRERPPRLPRPRPRPKTPPRP | 0.0131 |
| RRIRCRPPRLPRPRPRPWVFPRP | -0.0816 |
| RRIRHRPPRLPRPRPRPKHMPRP | -0.0234 |
| RRIRYRPPRLPRPRPRPNAEPRP | -0.122 |
| RRIRKRPPRLPRPRPRPYWSPRP | -0.153 |
| RRIRERPPRLPRPRPRPMDQPRP | -0.00192 |
| RRIRDRPPRLPRPRPRPHACPRP | 0.00242 |
| RRIRLRPPRLPRPRPRPHNAPRP | 1.08 |
| RRIRVRPPRLPRPRPRPDEWPRP | 0.0467 |
| RRIRCRPPRLPRPRPRPPSQPRP | 0.355 |
| RRIRRRPPRLPRPRPRPRSFPRP | 0.401 |
| RRIRDRPPRLPRPRPRPKSRPRP | 0.0765 |
| RRIRQRPPRLPRPRPRPAVHPRP | -0.0227 |
| RRIRSRPPRLPRPRPRPAPHPRP | 0.276 |
| RRIRARPPRLPRPRPRPQHQPRP | 0.698 |
| RRIRKRPPRLPRPRPRPDNMPRP | 0.107 |
| RRIRRRPPRLPRPRPRPAGGPRP | 0.327 |
| RRIRKRPPRLPRPRPRPHLTPRP | 0.055 |
| RRIRRRPPRLPRPRPRPRFMPRP | 0.055 |
| RRIRGRPPRLPRPRPRPNITPRP | 0.315 |
| RRIRWRPPRLPRPRPRPHAEPRP | 0.0375 |

| Sequence | shrunken log2 fold change |
| --- | --- |
| RRIRSRPPRLPRPRPRPDHIPRP | -0.119 |
| RRIRMRPPRLPRPRPRPYGGPRP | -1.22 |
| RRIRHRPPRLPRPRPRPSFVPRP | -0.38 |
| RRIRIRPPRLPRPRPRPQPMPRP | 0.604 |
| RRIRLRPPRLPRPRPRPYPFPRP | -0.137 |
| RRIRTRPPRLPRPRPRPSHIPRP | -0.274 |
| RRIRMRPPRLPRPRPRPQFEPRP | 0.046 |
| RRIRRRPPRLPRPRPRPPWFPRP | 0.479 |
| RRIRVRPPRLPRPRPRPSIKPRP | -0.552 |
| RRIRERPPRLPRPRPRPCKKPRP | 0.0187 |
| RRIRCRPPRLPRPRPRPFQEPRP | -0.101 |
| RRIRGRPPRLPRPRPRPKPSPRP | 1.1 |
| RRIRKRPPRLPRPRPRPETCPRP | 0.0906 |
| RRIRLRPPRLPRPRPRPLDTPRP | 0.0486 |
| RRIRRRPPRLPRPRPRPARMPRP | 0.173 |
| RRIRFRPPRLPRPRPRPQTIPRP | -0.485 |
| RRIRRRPPRLPRPRPRPNHPPRP | -0.0297 |
| RRIRARPPRLPRPRPRPLIYPRP | 0.0475 |
| RRIRLRPPRLPRPRPRPGPMPRP | 0.255 |
| RRIRVRPPRLPRPRPRPCKSPRP | -0.214 |
| RRIRGRPPRLPRPRPRPLGTPRP | 0.736 |
| RRIRVRPPRLPRPRPRPYNTPRP | -0.326 |
